Experimental data: patent publication US20110038869A1
Where two headings read alike, the source gives them in different places.

Legend:
CD32bECDHis (human) [1] = target: CD32bECDHis (human) (UniProt P31994); assay: TR-FRET competition of unlabeled against labelled HuMab-KLH, Fc-mediated
CD32aECDHis (human) = CD32aECDHis (human) (UniProt P12318); assay: as above
[2] = target: biotinylated CD32bECDHis (human) (UniProt P31994); assay: competition ELISA, competitor 2B6
[3] = target: biotinylated CD32bECDHis (human) (UniProt P31994); assay: competition ELISA, competitor 063
[4] = target: CD32b on CD32b+ Daudi cells (Daudi-luc) (human) (UniProt P31994); assay: flow cytometry on Daudi-luc cells
[5] = target: biotinylated CD32bECDHis (human) (UniProt P31994); assay: competition ELISA, competitor 026
[6] = target: biotinylated CD32bECDHis (human) (UniProt P31994); assay: competition ELISA, competitor 028
[7] = target: biotinylated CD32bECDHis (human) (UniProt P31994); assay: competition ELISA, competitor 020
[8] = target: CD32b on CD32b+ Daudi cells (Daudi-luc) (human) (UniProt P31994); assay: cell-based or functional assay
[9] = target: biotinylated CD32bECDHis (human) (UniProt P31994); assay: competition ELISA, competitor 038
[10] = target: full length CD32b on stably transfected IIA1.6 cells (human) (UniProt P31994); assay: flow cytometry on IIA1.6-CD32b cells
[11] = target: full length CD32b1 on transfected IIA1.6 cells (human) (UniProt P31994); assay: flow cytometry on IIA1.6-CD32b1 cells
[12] = target: biotinylated CD32bECDHis (human) (UniProt P31994); assay: competition ELISA, competitor 034
[13] = target: biotinylated CD32bECDHis (human) (UniProt P31994); assay: competition ELISA, competitor 024
[14] = target: CD32b on CD32b+ Daudi cells (Daudi-luc) (human) (UniProt P31994); assay: cell-based or functional assay; remark: listed apart in the source
[15] = target: biotinylated CD32bECDHis (human) (UniProt P31994); assay: competition ELISA, competitor 022
CD32bECDHis (human) [16] = target: CD32bECDHis (human) (UniProt P31994); assay: SPR BIAcore 3000, antibody immobilized, CD32bECDHis analyte
CD32bECDHis (human) [17] = target: CD32bECDHis (human) (UniProt P31994); assay: ELISA on coated CD32bECDHis
[18] = target: biotinylated CD32bECDHis (human) (UniProt P31994); assay: competition ELISA, competitor 053
CD32bECDHis (human) [19] = target: CD32bECDHis (human) (UniProt P31994); assay: TR-FRET competition against HuMab-KLH-AlexaFluor 647
[20] = target: full length CD32b1 on transfected IIA1.6 cells (human) (UniProt P31994); assay: flow cytometry on IIA1.6-CD32b1 against IIA1.6-CD32b2 cells
[21] = target: full length CD32b2 on transfected IIA1.6 cells (human) (UniProt P31994); assay: flow cytometry on IIA1.6-CD32b2 cells
[22] = target: CD32b on CD32b+ Daudi cells (Daudi-luc) (human) (UniProt P31994); assay: flow cytometry on JeKo-1 mantle cell lymphoma cells
[23] = target: biotinylated CD32bECDHis (human) (UniProt P31994); assay: competition ELISA, competitor 016

Sequence of CD32bECDHis (human) (P31994 43-223 limits assumed, form in doubt): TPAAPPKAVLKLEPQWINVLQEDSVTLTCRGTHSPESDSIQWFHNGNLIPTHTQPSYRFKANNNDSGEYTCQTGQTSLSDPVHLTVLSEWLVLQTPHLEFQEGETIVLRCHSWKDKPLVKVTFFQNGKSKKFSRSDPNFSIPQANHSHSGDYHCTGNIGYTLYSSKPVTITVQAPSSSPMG
Sequence of biotinylated CD32bECDHis (human) (P31994 43-223 limits assumed, form in doubt): as above
Sequence of CD32b on CD32b+ Daudi cells (Daudi-luc) (human) (P31994 43-310): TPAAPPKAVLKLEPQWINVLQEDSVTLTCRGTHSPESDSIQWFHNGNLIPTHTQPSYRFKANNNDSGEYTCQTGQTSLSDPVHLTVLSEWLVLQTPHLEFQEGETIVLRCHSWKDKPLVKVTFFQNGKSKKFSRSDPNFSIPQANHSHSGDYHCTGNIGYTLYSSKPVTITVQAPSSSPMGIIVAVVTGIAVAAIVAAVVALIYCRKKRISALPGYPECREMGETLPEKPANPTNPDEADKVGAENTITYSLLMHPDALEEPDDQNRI
Sequence of full length CD32b1 on transfected IIA1.6 cells (human) (P31994 43-310): as above
Sequence of full length CD32b2 on transfected IIA1.6 cells (human) (P31994 other isoform, or with tags, fused parts or gaps): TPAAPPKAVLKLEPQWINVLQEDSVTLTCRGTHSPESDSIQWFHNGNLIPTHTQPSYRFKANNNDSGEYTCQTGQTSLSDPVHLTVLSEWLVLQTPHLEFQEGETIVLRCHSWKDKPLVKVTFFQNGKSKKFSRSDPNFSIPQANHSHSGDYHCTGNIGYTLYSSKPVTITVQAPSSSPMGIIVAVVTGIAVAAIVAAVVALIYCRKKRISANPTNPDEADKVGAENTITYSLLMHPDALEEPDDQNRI
Sequence of full length CD32b on stably transfected IIA1.6 cells (human) (P31994 43-310): as the sequence (P31994 43-310) above
Sequence of CD32aECDHis (human) (P12318 34-215 limits assumed, form in doubt): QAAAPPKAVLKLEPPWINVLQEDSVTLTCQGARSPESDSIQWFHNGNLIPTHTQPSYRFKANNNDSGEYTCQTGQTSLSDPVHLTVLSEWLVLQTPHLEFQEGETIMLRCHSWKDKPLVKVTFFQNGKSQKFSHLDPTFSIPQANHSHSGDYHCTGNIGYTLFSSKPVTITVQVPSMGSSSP

HuMab-KLH (a human monoclonal antibody against KLH (keyhole limpet haemocyanin))
IC50 (CD32bECDHis (human) [1]): 417 nM
IC50 (CD32aECDHis (human)): 134 nM

chimeric anti-CD32b antibody 2B6
% residual binding [2]: 20%
% residual binding [3]: 181%
EC50 [4]: 0.1 nM
% residual binding [5]: 168%
% residual binding [6]: 165%
% residual binding [7]: 163%
EC50 (nM) in ADCC, lysis of 51Cr-labelled Daudi cells by PBMC [8]: 0.25 nM
% residual binding [9]: 113%
EC50 [10]: 1.49 nM
EC50 [11]: 0.24 nM
% residual binding [12]: 185%
% residual binding [13]: 174%
EC50 (nM) in ADCC, lysis of 51Cr-labelled Daudi cells by PBMC [14]: 0.13 nM
% residual binding [15]: 179%
Kd (CD32bECDHis (human) [16]): 0.3 nM
koff (CD32bECDHis (human) [16]): 0.00087 s⁻¹
kon (CD32bECDHis (human) [16]): 2.61e+06 M⁻¹ s⁻¹
EC50 (CD32bECDHis (human) [17]): 1.24 nM
% residual binding [18]: 185%
IC50 (CD32bECDHis (human) [19]): 0.57 nM
Ratio EC50 (CD32b1)/EC50(CD32b2) [20]: 1.27
EC50 [21]: 0.19 nM
EC50 [22]: 0.34 nM
% residual binding [23]: 105%
